The Human Domainome abundance scans (Beltran et al. 2025)
± gives the uncertainty stated by the source.

B1: Tyrosine-protein kinase BTK, residues 215 to 273; numbered along this chain, Q06187 (parent)
chain: ELKKVVALYDYMPMNANDLQLRKGDEYFILEESNLPWWRARDKNGQEGYIPSNYVTEAE

Variants of: B1
Experiment: abundance fitness (aPCA) (normalised: wild type 0, dead -1); higher = more abundant; growth selection in yeast, the domain comes from the species named
Details: Homo sapiens

Variant	abundance fitness
N15H	-0.048 ± 0.069
N15P	-0.442 ± 0.044
N15D	-0.018 ± 0.049
N15L	0.004 ± 0.03
N15A	-0.077 ± 0.034
N15E	-0.011 ± 0.037
N15Y	-0.23 ± 0.062
N15W	-0.14 ± 0.04
N15F	-0.176 ± 0.045
N15M	-0.03 ± 0.037
M14K	-0.007 ± 0.059
M14Y	-0.15 ± 0.12
M14H	0.068 ± 0.1
M14R	0.051 ± 0.035
M14F	0.022 ± 0.044
M14T	-0.028 ± 0.04
M14L	-0.018 ± 0.03
M14C	-0.08 ± 0.059
M14G	0.02 ± 0.035
M14N	0.059 ± 0.062
M14A	0.051 ± 0.039
M14S	-0.001 ± 0.031
M14Q	0.038 ± 0.064
M14W	-0.129 ± 0.042

Variant	abundance fitness
M14I	-0.049 ± 0.049
M14V	0.026 ± 0.032
M14D	-0.013 ± 0.076
M14P	-0.002 ± 0.049
A7I	-0.966 ± 0.15
A7R	-1.04 ± 0.056
A7Y	-1.06 ± 0.12
A7K	-0.955 ± 0.06
A7S	-0.142 ± 0.034
A7Q	-0.828 ± 0.059
A7P	-0.654 ± 0.053
A7E	-0.813 ± 0.054
A7C	-0.203 ± 0.055
A7F	-0.599 ± 0.1
A7W	-1.03 ± 0.071
A7D	-0.909 ± 0.11
A7H	-0.804 ± 0.11
A7M	-0.837 ± 0.059
A7V	-0.681 ± 0.04
A7G	-0.364 ± 0.032
A7L	-1 ± 0.047
A7T	-0.801 ± 0.056
A7N	-1.11 ± 0.15
L8C	-0.04 ± 0.041

Variant	abundance fitness
L8Q	-0.093 ± 0.047
L8F	-0.222 ± 0.056
L8S	-0.107 ± 0.035
L8D	-0.137 ± 0.055
L8P	-0.657 ± 0.05
L8E	-0.094 ± 0.035
L8M	-0.014 ± 0.049
L8N	-0.118 ± 0.077
L8K	-0.003 ± 0.052
L8A	-0.124 ± 0.031
L8V	-0.055 ± 0.029
L8T	-0.019 ± 0.04
L8G	-0.338 ± 0.027
L8R	-0.017 ± 0.028
M12T	0.016 ± 0.051
M12Y	-0.018 ± 0.069
M12S	0.007 ± 0.037
M12W	-0.07 ± 0.039
M12F	-0.062 ± 0.068
M12R	-0.002 ± 0.029
M12Q	-0.009 ± 0.055
M12D	-0.04 ± 0.054
M12L	0.016 ± 0.032
M12H	0.006 ± 0.091

Variant	abundance fitness
M12E	0.017 ± 0.049
M12K	0.065 ± 0.051
M12N	-0.007 ± 0.067
M12I	0.036 ± 0.06
M12A	0.017 ± 0.038
M12P	-0.008 ± 0.048
M12C	0.032 ± 0.052
M12G	-0.136 ± 0.036
M12V	-0.022 ± 0.039
V5L	-0.244 ± 0.035
V5M	-0.134 ± 0.041
V5H	-0.335 ± 0.071
V5E	-0.708 ± 0.079
V5Q	-0.329 ± 0.059
V5C	-0.213 ± 0.043
V5S	-0.404 ± 0.04
V5I	-0.189 ± 0.035
V5G	-0.425 ± 0.039
V5T	-0.323 ± 0.048
V5Y	-0.113 ± 0.054
V5K	-0.288 ± 0.056
V5P	-0.755 ± 0.071
V5N	-0.839 ± 0.069
V5F	-0.052 ± 0.046

Variant	abundance fitness
E1P	-0.305 ± 0.16
E1F	-0.094 ± 0.2
E1D	-0.103 ± 0.075
E1Y	-0.062 ± 0.16
E1I	-0.106 ± 0.46
E1W	-0.088 ± 0.079
E1N	-0.012 ± 0.14
E1C	-0.252 ± 0.16
E1H	-0.174 ± 0.11
E1Q	-0.121 ± 0.12
E1T	-0.288 ± 0.1
E1V	-0.074 ± 0.048
E1A	-0.172 ± 0.054
E1R	-0.15 ± 0.099
E1K	-0.035 ± 0.087
E1L	-0.074 ± 0.067
K4C	-0.225 ± 0.072
K4Q	-0.088 ± 0.059
K4L	-0.089 ± 0.041
K4W	-0.334 ± 0.047
K4Y	-0.285 ± 0.06
K4S	-0.1 ± 0.043
K4P	-0.15 ± 0.066
K4H	-0.322 ± 0.09

Variant	abundance fitness
K4T	-0.036 ± 0.046
K4D	-0.287 ± 0.17
K4I	-0.033 ± 0.098
K4G	-0.357 ± 0.035
K4R	-0.072 ± 0.041
K4M	-0.133 ± 0.061
K4V	-0.079 ± 0.044
K4N	-0.339 ± 0.11
K4A	-0.168 ± 0.048
K4E	-0.135 ± 0.054
K3A	-0.225 ± 0.053
K3I	-0.257 ± 0.054
K3N	-0.112 ± 0.056
K3F	-0.038 ± 0.065
K3W	-0.253 ± 0.05
K3G	-0.227 ± 0.042
K3L	-0.102 ± 0.034
K3H	-0.224 ± 0.078
K3T	-0.117 ± 0.062
K3Q	-0.293 ± 0.067
K3P	-0.234 ± 0.064
K3S	-0.135 ± 0.044
K3Y	-0.205 ± 0.058
K3E	-0.309 ± 0.07

Variant	abundance fitness
K3C	-0.223 ± 0.09
K3V	-0.107 ± 0.041
K3R	-0.065 ± 0.043
K3D	-0.22 ± 0.08
K3M	0 ± 0.05
L2I	-0.089 ± 0.071
L2E	-0.126 ± 0.06
L2S	-0.075 ± 0.04
L2Y	-0.036 ± 0.073
L2F	0.011 ± 0.043
L2W	-0.088 ± 0.042
L2R	-0.075 ± 0.041
L2Q	-0.013 ± 0.089
L2P	-0.136 ± 0.059
L2V	-0.116 ± 0.036
L2C	-0.177 ± 0.047
L2N	0.012 ± 0.088
L2K	-0.095 ± 0.08
L2G	-0.018 ± 0.039
L2H	-0.167 ± 0.12
L2M	-0.055 ± 0.056
L2A	-0.093 ± 0.07
L2T	-0.161 ± 0.074
